Tests used:
Format in all cases: cell-based, human
CYP3A4 [1] = assay: Amount of CYP3A4 protein by western blotting in spheroid-shaped FLC-4 cells (example, MICRO-SPACE)
Description: (§1) A plurality of culture chambers 10a are formed on the bottom culture surface of each well 21a. Each culture chamber 10a includes culture rooms 11a each having the equivalent diameter D of 200 μm and the height H of 100 μm. The width W of each wall 12a is 10 μm.
(§2) As cells to be cultured, FLC-4 cells which are established hepatocyte cell lines […] were used.
(§3) Epidermal Growth Factor (EFG) was used as the cytokine.
(§4) DMEM/F12 (DMEM/E12 FBS(−)) containing no serum was used as a solvent for each test solution.
(§5) To study the cytokine concentrations of the second and third test solutions, test solutions respectively having EGF concentrations of 0.1 ng/mL, 1 ng/mL, and 10 ng/mL were prepared. Note that the cells were cultured in each test solution in advance to obtain a cell survival rate, and it was confirmed that the cell survival rate at these concentrations was 80% or more.
The total amount of old culture medium was removed from each well by using a pipette (culture medium removing process). […]
(§6) The cells corresponding to three to six wells were sonicated by a Lysis buffer containing 0.1% protease inhibitor cocktail and 1 mM PMSF (Phenylmethyl sulfonyl fluoride). […] ImmunoStar LD (Wako Pure Chemical Industries, Ltd.) was used as protein and was detected using LAS-1000 plus (Fujifilm, Tokyo).

CYP3A4 [2] = assay: CYP3A4 mRNA expression by RT-qPCR in spheroid-shaped FLC-4 cells (example, MICRO-SPACE); conditions: EGF 10 ng/mL, drug-free vs cytokine-free and drug-free; FIG. 20
Description: as §1, §2
As a culture medium, a DMEM/F 12 culture medium containing 10% fetal bovine serum (FBS) was used. A cell suspension was adjusted at a cell seeding density of 16×10^5 cells/mL.
The cells were cultured in a CO2 incubator for 10 to 11 days. The culture medium was replaced once every three days.
(§7) The total amount of old culture medium was removed from each well by using a pipette (culture medium removing process).
A test solution or a control solution was added to each well (test solution addition process).
The cells were incubated in a CO2 incubator for eight hours, 24 hours, or 48 hours at 37° C. (contact process). […]
The analysis was made using a total amount of 20 μL of reaction liquid containing 9.6 μL of EagleTaq Master Mix with ROX (Roche, Branchburg, N.J., USA), 0.96 μL of 20× Assays-on-Demand™ Gene Expression Assay Mix (Applied Biosystems), 7.1 μL of sterilized MiliQ water, and 1.8 μL of cDNA diluted by a factor of 5, and the reaction liquid was measured by Real-time PCR.

CYP3A4 [3] = assay: Amount of CYP3A4 protein by western blotting in FLC-4 cells on flat 24-well plate (comparative example, CONFLUENT)
Experimental: As the culture chamber, a commercially-available 24-well plate having a flat culture surface was used. The cell culture grade was used as the grade for the culture plate.
Except for the above-mentioned conditions, the comparative example was carried out under the same conditions as those for the example.
as §3, §4, §5, §7
Each test solution for studying the cytokine concentration was added to each well (test solution addition process). […]
as §6

FLC-4 cells = assay: Cell survival rate of cells cultured in cytokine test solutions; conditions: EGF concentrations of 0.1, 1 and 10 ng/mL
Experimental: as §5

[4] = EGF 0, 0.1, 1, 10 ng/mL, western blotting

B1: Epidermal Growth Factor (protein, UniProt P01133 23-1207, looked up)
Pro-epidermal growth factor: PQHWSCPEGTLAGNGNSTCVGPAPFLIFSHGNSIFRIDTEGTNYEQLVVDAGVSVIMDFHYNEKRIYWVDLERQLLQRVFLNGSRQERVCNIEKNVSGMAINWINEEVIWSNQQEGIITVTDMKGNNSHILLSALKYPANVAVDPVERFIFWSSEVAGSLYRADLDGVGVKALLETSEKITAVSLDVLDKRLFWIQYNREGSNSLICSCDYDGGSVHISKHPTQHNLFAMSLFGDRIFYSTWKMKTIWIANKHTGKDMVRINLHSSFVPLGELKVVHPLAQPKAEDDTWEPEQKLCKLRKGNCSSTVCGQDLQSHLCMCAEGYALSRDRKYCEDVNECAFWNHGCTLGCKNTPGSYYCTCPVGFVLLPDGKRCHQLVSCPRNVSECSHDCVLTSEGPLCFCPEGSVLERDGKTCSGCSSPDNGGCSQLCVPLSPVSWECDCFPGYDLQLDEKSCAASGPQPFLLFANSQDIRHMHFDGTDYGTLLSQQMGMVYALDHDPVENKIYFAHTALKWIERANMDGSQRERLIEEGVDVPEGLAVDWIGRRFYWTDRGKSLIGRSDLNGKRSKIITKENISQPRGIAVHPMAKRLFWTDTGINPRIESSSLQGLGRLVIASSDLIWPSGITIDFLTDKLYWCDAKQSVIEMANLDGSKRRRLTQNDVGHPFAVAVFEDYVWFSDWAMPSVMRVNKRTGKDRVRLQGSMLKPSSLVVVHPLAKPGADPCLYQNGGCEHICKKRLGTAWCSCREGFMKASDGKTCLALDGHQLLAGGEVDLKNQVTPLDILSKTRVSEDNITESQHMLVAEIMVSDQDDCAPVGCSMYARCISEGEDATCQCLKGFAGDGKLCSDIDECEMGVPVCPPASSKCINTEGGYVCRCSEGYQGDGIHCLDIDECQLGEHSCGENASCTNTEGGYTCMCAGRLSEPGLICPDSTPPPHLREDDHHYSVRNSDSECPLSHDGYCLHDGVCMYIEALDKYACNCVVGYIGERCQYRDLKWWELRHAGHGQQQKVIVVAVCVVVLVMLLLLSLWGAHYYRTQKLLSKNPKNPYEESSRDVRSRRPADTEDGMSSCPQPWFVVIKEHQDLKNGGQPVAGEDGQAADGSMQPTSWRQEPQLCGMGTEQGCWIPVSSDKGSCPQVMERSFHMPSYGTQTLEGGVEKPHSLLSANPLWQQRALDPPHQMELTQ
modifications: Pro-epidermal growth factor
notes: Epidermal Growth Factor used as the cytokine
For B1, the “function of CYP3A4 (amount of CYP3A4 protein, bands), concentration dependency” value (CYP3A4 [1]; [4]) was “decreases depending on the concentration”, the “amount of CYP3A4 protein, second test solution versus first test solution” value (CYP3A4 [1]; EGF 10 ng/mL (M10) vs 0 ng/mL (M0), FIG. 19) was “M0 is greater than M10” and the “value of the metabolic function of CYP3A4 (mRNA expression level), second test solution versus first test solution” value (CYP3A4 [2]) was “lower”. For the same molecule, the “function of CYP3A4 (amount of CYP3A4 protein, bands), concentration dependency” value (CYP3A4 [3]; [4]) was “the concentration dependency was not confirmed”, the “amount of CYP3A4 protein, second test solution versus first test solution” value (CYP3A4 [3]; EGF 10 ng/mL (C10) vs 0 ng/mL (C0), FIG. 19) was “C0 and C10 are nearly equal” and the cell survival rate (FLC-4 cells) was no less than 80%.

Reference: patent US10677783B2, “Method for evaluating effect of cytokine on metabolic activity of cytochrome P450, and drug screening method” (Corning Incorporated, priority 2012, dated 2020)
